Laboratory results published in US12630600B2 (MEDIMMUNE LIMITED, priority 2022, dated 2026).
Starred links: 1 amine or outer side, 2 acyl side, 3 side chain; linkers in the order of their positions; H or OH if unused. Non-standard residues stand in square brackets, D forms with d. Groups on a side chain read outwards from the residue. No end group written: not given here. *: point of attachment. C20 diacid = O=C(O)CCCCCCCCCCCCCCCCCCC(=O)*; C18 diacid = O=C(O)CCCCCCCCCCCCCCCCC(=O)*; γGlu = O=C(O)[C@H](CCC(=O)[*:2])N[*:1]; αMeF = C[C@](N)(Cc1ccccc1)C(=O)O; AEEA = NCCOCCOCC(=O)O; Aib = CC(C)(N)C(=O)O

B1: Peptide 440 (peptide)
peptide: H[Aib]QGTFTSDVSK[αMeF]LDKK([AEEA-AEEA-γGlu-C20 diacid])RARDFVRWLL[Aib]E-OH
modifications: N-terminus assumed
SMILES: CC(C)C[C@H](NC(=O)[C@H](Cc1c[nH]c2ccccc12)NC(=O)[C@H](CCCNC(=N)N)NC(=O)[C@@H](NC(=O)[C@H](Cc1ccccc1)NC(=O)[C@H](CC(=O)O)NC(=O)[C@H](CCCNC(=N)N)NC(=O)[C@H](C)NC(=O)[C@H](CCCNC(=N)N)NC(=O)[C@H](CCCCNC(=O)COCCOCCNC(=O)COCCOCCNC(=O)CC[C@H](NC(=O)CCCCCCCCCCCCCCCCCCC(=O)O)C(=O)O)NC(=O)[C@H](CCCCN)NC(=O)[C@H](CC(=O)O)NC(=O)[C@H](CC(C)C)NC(=O)[C@](C)(Cc1ccccc1)NC(=O)[C@H](CCCCN)NC(=O)[C@H](CO)NC(=O)[C@@H](NC(=O)[C@H](CC(=O)O)NC(=O)[C@H](CO)NC(=O)[C@@H](NC(=O)[C@H](Cc1ccccc1)NC(=O)[C@@H](NC(=O)CNC(=O)[C@H](CCC(N)=O)NC(=O)C(C)(C)NC(=O)[C@@H](N)Cc1c[nH]cn1)[C@@H](C)O)[C@@H](C)O)C(C)C)C(C)C)C(=O)N[C@@H](CC(C)C)C(=O)NC(C)(C)C(=O)N[C@@H](CCC(=O)O)C(=O)O
B2: Peptide 436 (peptide)
peptide: H[Aib]QGTFTSDVSK[αMeF]LDRK([AEEA-AEEA-γGlu-C18 diacid])RAQDFVRWLV[Aib]E-NH2
modifications: N-terminus assumed
SMILES: CC(C)C[C@H](NC(=O)[C@H](Cc1c[nH]c2ccccc12)NC(=O)[C@H](CCCNC(=N)N)NC(=O)[C@@H](NC(=O)[C@H](Cc1ccccc1)NC(=O)[C@H](CC(=O)O)NC(=O)[C@H](CCC(N)=O)NC(=O)[C@H](C)NC(=O)[C@H](CCCNC(=N)N)NC(=O)[C@H](CCCCNC(=O)COCCOCCNC(=O)COCCOCCNC(=O)CC[C@H](NC(=O)CCCCCCCCCCCCCCCCC(=O)O)C(=O)O)NC(=O)[C@H](CCCNC(=N)N)NC(=O)[C@H](CC(=O)O)NC(=O)[C@H](CC(C)C)NC(=O)[C@](C)(Cc1ccccc1)NC(=O)[C@H](CCCCN)NC(=O)[C@H](CO)NC(=O)[C@@H](NC(=O)[C@H](CC(=O)O)NC(=O)[C@H](CO)NC(=O)[C@@H](NC(=O)[C@H](Cc1ccccc1)NC(=O)[C@@H](NC(=O)CNC(=O)[C@H](CCC(N)=O)NC(=O)C(C)(C)NC(=O)[C@@H](N)Cc1c[nH]cn1)[C@@H](C)O)[C@@H](C)O)C(C)C)C(C)C)C(=O)N[C@H](C(=O)NC(C)(C)C(=O)N[C@@H](CCC(=O)O)C(N)=O)C(C)C
B3: Peptide 438 (peptide)
peptide: H[Aib]QGTFTSDVSK[αMeF]LDKK([AEEA-AEEA-γGlu-C18 diacid])RAQDFVRWLEA[Aib]G-NH2
modifications: N-terminus assumed
SMILES: CC(C)C[C@H](NC(=O)[C@H](Cc1c[nH]c2ccccc12)NC(=O)[C@H](CCCNC(=N)N)NC(=O)[C@@H](NC(=O)[C@H](Cc1ccccc1)NC(=O)[C@H](CC(=O)O)NC(=O)[C@H](CCC(N)=O)NC(=O)[C@H](C)NC(=O)[C@H](CCCNC(=N)N)NC(=O)[C@H](CCCCNC(=O)COCCOCCNC(=O)COCCOCCNC(=O)CC[C@H](NC(=O)CCCCCCCCCCCCCCCCC(=O)O)C(=O)O)NC(=O)[C@H](CCCCN)NC(=O)[C@H](CC(=O)O)NC(=O)[C@H](CC(C)C)NC(=O)[C@](C)(Cc1ccccc1)NC(=O)[C@H](CCCCN)NC(=O)[C@H](CO)NC(=O)[C@@H](NC(=O)[C@H](CC(=O)O)NC(=O)[C@H](CO)NC(=O)[C@@H](NC(=O)[C@H](Cc1ccccc1)NC(=O)[C@@H](NC(=O)CNC(=O)[C@H](CCC(N)=O)NC(=O)C(C)(C)NC(=O)[C@@H](N)Cc1c[nH]cn1)[C@@H](C)O)[C@@H](C)O)C(C)C)C(C)C)C(=O)N[C@@H](CCC(=O)O)C(=O)N[C@@H](C)C(=O)NC(C)(C)C(=O)NCC(N)=O
B4: Peptide 437 (peptide)
peptide: H[Aib]QGTFTSDVSK[αMeF]LDRK([AEEA-AEEA-γGlu-C20 diacid])RAQDFVRWLV[Aib]E-NH2
modifications: N-terminus assumed
SMILES: CC(C)C[C@H](NC(=O)[C@H](Cc1c[nH]c2ccccc12)NC(=O)[C@H](CCCNC(=N)N)NC(=O)[C@@H](NC(=O)[C@H](Cc1ccccc1)NC(=O)[C@H](CC(=O)O)NC(=O)[C@H](CCC(N)=O)NC(=O)[C@H](C)NC(=O)[C@H](CCCNC(=N)N)NC(=O)[C@H](CCCCNC(=O)COCCOCCNC(=O)COCCOCCNC(=O)CC[C@H](NC(=O)CCCCCCCCCCCCCCCCCCC(=O)O)C(=O)O)NC(=O)[C@H](CCCNC(=N)N)NC(=O)[C@H](CC(=O)O)NC(=O)[C@H](CC(C)C)NC(=O)[C@](C)(Cc1ccccc1)NC(=O)[C@H](CCCCN)NC(=O)[C@H](CO)NC(=O)[C@@H](NC(=O)[C@H](CC(=O)O)NC(=O)[C@H](CO)NC(=O)[C@@H](NC(=O)[C@H](Cc1ccccc1)NC(=O)[C@@H](NC(=O)CNC(=O)[C@H](CCC(N)=O)NC(=O)C(C)(C)NC(=O)[C@@H](N)Cc1c[nH]cn1)[C@@H](C)O)[C@@H](C)O)C(C)C)C(C)C)C(=O)N[C@H](C(=O)NC(C)(C)C(=O)N[C@@H](CCC(=O)O)C(N)=O)C(C)C
B5: Peptide 439 (peptide)
peptide: H[Aib]QGTFTSDVSK[αMeF]LDRK([AEEA-AEEA-γGlu-C18 diacid])RAQDFVRWLL[Aib]E-NH2
modifications: N-terminus assumed
SMILES: CC(C)C[C@H](NC(=O)[C@H](Cc1c[nH]c2ccccc12)NC(=O)[C@H](CCCNC(=N)N)NC(=O)[C@@H](NC(=O)[C@H](Cc1ccccc1)NC(=O)[C@H](CC(=O)O)NC(=O)[C@H](CCC(N)=O)NC(=O)[C@H](C)NC(=O)[C@H](CCCNC(=N)N)NC(=O)[C@H](CCCCNC(=O)COCCOCCNC(=O)COCCOCCNC(=O)CC[C@H](NC(=O)CCCCCCCCCCCCCCCCC(=O)O)C(=O)O)NC(=O)[C@H](CCCNC(=N)N)NC(=O)[C@H](CC(=O)O)NC(=O)[C@H](CC(C)C)NC(=O)[C@](C)(Cc1ccccc1)NC(=O)[C@H](CCCCN)NC(=O)[C@H](CO)NC(=O)[C@@H](NC(=O)[C@H](CC(=O)O)NC(=O)[C@H](CO)NC(=O)[C@@H](NC(=O)[C@H](Cc1ccccc1)NC(=O)[C@@H](NC(=O)CNC(=O)[C@H](CCC(N)=O)NC(=O)C(C)(C)NC(=O)[C@@H](N)Cc1c[nH]cn1)[C@@H](C)O)[C@@H](C)O)C(C)C)C(C)C)C(=O)N[C@@H](CC(C)C)C(=O)NC(C)(C)C(=O)N[C@@H](CCC(=O)O)C(N)=O

What was measured:
[1] = biological target: human glucagon receptor (human, UniProt P47871); assay: cell-based or functional assay
[2] = biological target: human GLP-1 receptor (human, UniProt P43220); assay: cell-based or functional assay

Binder	cAMP production EC50 [1]	cAMP production EC50 [2]
B1	0.081 nM	0.154 nM
B2	0.0688 nM	0.00743 nM
B3	0.0689 nM	0.0179 nM
B4	0.0969 nM	0.0269 nM
B5	0.0577 nM	0.0307 nM
